Results: patent US12258605B2, “Alkane oxidation by modified hydroxylases” (The California Institute of Technology, priority 2005, dated 2025)
Marks after values point to notes of the source that are not given here.

B1: 35-E11-E464R: P450 BM-3 variant, SEQ ID NO:8; 35-E11 with E464R (protein)
chain: TIKEMPQPKTFGELKNLPLLNTDKPVQALMKIADELGEIFKFEAPGCVTRYLSSQRLIKEACDESRFDKNLSQALKFFRDFSGDGLFTSWTHEINWKKAHNILLPSFSQQAMKGYHAMMVDIAVQLVQKWERLNADEHIEVSEDMTRLTLDTIGLCGFNYRFNSFYRDQPHPFIISMVRALDEVMNKLQRANPDDPAYDENKRQCQEDIKVMNDLVDKIIADRKARGEQSDDLLTQMLNGKDPETGEPLDDGNISYQIITFLIAGHETTSGLLSFALYFLVKNPHVLQKVVEEAARVLVDPVPSYKQVKQLKYVGMVLNEALRLWPTFPAFSLYAKEDTVLGGEYPLEKGDEVMVLIPQLHRDKTIWGDDVEEFRPERFENPSAIPQHAFKPFGNGQRACIGQQFALHEATLVLGMMLKHFDFEDHTNYELDIKETLTLKPEGFVVKAKSKKIPLGGIPSPSTRQSAKKVRKKAENAHNTPLLVLYGSNMGTAEGTARDLADIAMSKGFAPQVATLDSHAGNLPREGAVLIVTASYNGHPPDNAKQFVDWLDQASADEVKGVRYSVFGCGDKNWATTYQKVPAFIDETLAAKGAENIADRGEADASDDFEGTYEEWREHMWSDVAAYFNLDIENSEDNKSTLSLQFVDSAADMPLAKMHGAFSTNVVASKELQQPGSARSTRHLEIELPKEASYQEGDHLGVIPRNYEGTVNRVTARFGLDASQQIRLEAEEEKLAHLPLAKTVSVEELLQYVELQDPVTRTQLRAMAAKTVCPPHKVELEALLEKQAYKEQVLAKRLTMLELLEKYPACEMKFSEFIALLPSIRPRYYSISSSPRVDEKQASITVSVVSGEAWSGYGEYKGIASNYLAELQEGDTITCFISTPQSEFTLPKDPETPLIMVGPGTGVAPFRGFVQARKQLKEQGQSLGEAHLYFGCRSPHEDYLYQEELENAQSEGIITLHTAFSRMPNQPKTYVQHVMEQDGKKLIELLDQGAHFYICGDGSQMAPAVEATLMKSYADVHQVSEADARLWLQQLEEKGRYAKDVWAG
modifications: mutant P450 35-E11-E464R protein sequence
notes: 35-E11 with E464R
B2: 35-E11-E464Y: P450 BM-3 variant, SEQ ID NO:9; 35-E11 with E464Y (protein)
chain: TIKEMPQPKTFGELKNLPLLNTDKPVQALMKIADELGEIFKFEAPGCVTRYLSSQRLIKEACDESRFDKNLSQALKFFRDFSGDGLFTSWTHEINWKKAHNILLPSFSQQAMKGYHAMMVDIAVQLVQKWERLNADEHIEVSEDMTRLTLDTIGLCGFNYRFNSFYRDQPHPFIISMVRALDEVMNKLQRANPDDPAYDENKRQCQEDIKVMNDLVDKIIADRKARGEQSDDLLTQMLNGKDPETGEPLDDGNISYQIITFLIAGHETTSGLLSFALYFLVKNPHVLQKVVEEAARVLVDPVPSYKQVKQLKYVGMVLNEALRLWPTFPAFSLYAKEDTVLGGEYPLEKGDEVMVLIPQLHRDKTIWGDDVEEFRPERFENPSAIPQHAFKPFGNGQRACIGQQFALHEATLVLGMMLKHFDFEDHTNYELDIKETLTLKPEGFVVKAKSKKIPLGGIPSPSTYQSAKKVRKKAENAHNTPLLVLYGSNMGTAEGTARDLADIAMSKGFAPQVATLDSHAGNLPREGAVLIVTASYNGHPPDNAKQFVDWLDQASADEVKGVRYSVFGCGDKNWATTYQKVPAFIDETLAAKGAENIADRGEADASDDFEGTYEEWREHMWSDVAAYFNLDIENSEDNKSTLSLQFVDSAADMPLAKMHGAFSTNVVASKELQQPGSARSTRHLEIELPKEASYQEGDHLGVIPRNYEGTVNRVTARFGLDASQQIRLEAEEEKLAHLPLAKTVSVEELLQYVELQDPVTRTQLRAMAAKTVCPPHKVELEALLEKQAYKEQVLAKRLTMLELLEKYPACEMKFSEFIALLPSIRPRYYSISSSPRVDEKQASITVSVVSGEAWSGYGEYKGIASNYLAELQEGDTITCFISTPQSEFTLPKDPETPLIMVGPGTGVAPFRGFVQARKQLKEQGQSLGEAHLYFGCRSPHEDYLYQEELENAQSEGIITLHTAFSRMPNQPKTYVQHVMEQDGKKLIELLDQGAHFYICGDGSQMAPAVEATLMKSYADVHQVSEADARLWLQQLEEKGRYAKDVWAG
modifications: mutant P450 35-E11-E464Y protein sequence
notes: 35-E11 with E464Y

What was measured:
Format in all cases: biochemical
[1] = Methane to methanol conversion (alcohol oxidase/Purpald); settings: methane to methanol
Procedure: The 35-E11 variant was tested for the ability to convert methane to methanol using the method of Anthon and Barrett (Agric. Food Chem., 52:3749 (2004)). The method was optimized so that it could detect methanol concentrations in water as low as 10 μM.
The mutant BM-3 enzymes described below were purified using published procedures and used as catalysts in small reactions with methane. In glass head space vials containing magnetic stirring bars, BM-3 catalyst was added to 0.1 M potassium phosphate buffer (pH=8) saturated with methane. The vials were then crimped shut and charged to 20 psi with methane. To start the biotransformation, an NADPH regeneration system consisting of NADP+, isocitrate, and isocitric dehydrogenase was added through a syringe. The reaction was allowed to stir 12-15 hours. Methanol production was measured using a coupled enzyme assay. Aliquots of the reaction were transferred to 96-well microtitre plates and reacted with the enzyme alcohol oxidase for 5 minutes at room temperature. Alcohol oxidase converts the methanol produced by the BM-3 variants into formaldehyde which can be detected with the dye Purpald. To detect formaldehyde and quench the alcohol oxidase reaction, a solution of Purpald in 2 M NaOH was added and allowed to react for one hour. The purple color that Purpald forms in the presence of formaldehyde was quantified one hour later by spectrophotometrically reading the well at 550 nm and comparing the absorbance against similarly-treated solutions of BM-3, NADPH regeneration system, and methane-free buffer spiked with known concentrations of methanol. The results of these biotransformations are reported in Table 3 and sample spectra from the colorimetric assay are shown in FIG. 7.
Reactions for enzyme-catalyzed conversion of methane to methanol were carried out in 10 mL glass headspace vials. A 470 μL reaction mixture containing 5 μM purified BM-3 variant in 0.1 M potassium phosphate buffer (pH 8.0) was first added to the vial. The vial was immediately topped with a septum, pressurized with 30 psi of methane and shaken at 4° C. for 1 hour. […] For determination of total turnover, the reaction was allowed to proceed for 20 hours at room temperature.
The amount of methanol product formed during the 20 hr methane reaction was quantified colorimetrically with the use of alcohol oxidase and Purpald. 190 μL of the reaction mixture is transferred onto a single cell of a 96 well plate. 10 μL of 0.05 U/μL solution of alcohol oxidase (from Pichia pastoris, purchased from Sigma-Aldrich) was added to cell and allowed to incubate at room temperature for 5 minutes. During this time, the alcohol oxidase converts the methanol into formaldehyde. Purpald (168 mM in 2 M NAOH) was then added to form a purple product with the formaldehyde in solution. The purple color was read approximately 1 hour later at 550 nm using a Spectramax Plus microtiter plate reader. The concentration of methanol was determined based on the measure absorbance in comparison to a methanol calibration curve. The methanol calibration curve was generated with several standards. Each standard contained 100 μL of a methanol solution (10, 20, 40, 60, 100 μM) and 90 μL of the methane reaction mixture described above, without the methane pressurization.
The relative dimethyl ether (DME) activity was measured, 1 hour after treatment with Purpald, as the average net and absorbance at 550 nm from 8 microtitre plate DME reactions of the mutant compared to 8 equivalent reactions of 35-E11. All values were normalized by measuring the P450 concentration in each well with CO binding. “Asteriks” indicate criteria used to select mutants from libraries for further characterization. The oxidation rate is measured as absorbance change at 340 nm over 1 minute upon the addition of NADPH to 8 microtitre plate wells containing P450-containing cell lysate and compared to 8 equivalent reactions of 35-E11. […]

[2] = High-throughput dimethyl ether (DME) screen; settings: relative to 35-E11; normalized to P450 concentration
Procedure: Cell lysates for high throughput screening were prepared as described previously (Peters et al., J. Am. Chem. Soc. 125:13442 (2003); incorporated by reference herein). High-throughput dimethyl ether (DME) screens were performed in 96 well plates as described previously. Improved mutants were selected based on an increased signal compared to 9-10A (for the saturation mutagenesis libraries) and 1-12G (for the recombination library). Reactions on octane and propane were analyzed by gas chromatography as described.
(§1) Libraries of mutants of 35-E11 were screened for phenotypes indicative of either increased product formation on small gaseous substrates slightly larger than methane. Additionally, they were screened for increased coupling of the consumption of NADPH reducing equivalents to product formation. Product formation was determined by measuring total amount of dimethyl ether hydroxylation while increased coupling was determined primarily by decreased background NADPH consumption rates (measured spectrophotometrically at 340 nm in the absence of substrate).
The relative dimethyl ether (DME) activity was measured, 1 hour after treatment with Purpald, as the average net and absorbance at 550 nm from 8 microtitre plate DME reactions of the mutant compared to 8 equivalent reactions of 35-E11. All values were normalized by measuring the P450 concentration in each well with CO binding. “Asteriks” indicate criteria used to select mutants from libraries for further characterization. The oxidation rate is measured as absorbance change at 340 nm over 1 minute upon the addition of NADPH to 8 microtitre plate wells containing P450-containing cell lysate and compared to 8 equivalent reactions of 35-E11. All values were normalized by measuring the P450 concentration in each well with CO binding. The total turnover number (TTN) was measured as the absorbance at 550 nm of methane reactions with each mutant after treatment with alcohol oxidase and
Screening libraries by spectroscopically monitoring NADPH consumption rates in the presence of the alkane often selects for mutants with NADPH oxidation rates highly uncoupled to product formation. This can be overcome through the use of surrogate substrates that mimic desired substrates, yet yield species when hydroxylated that are easily detected either directly or with the addition of a dye. For example, the screen for the high-throughput identification of mutant BM-3 enzymes with activity towards propane as described previously uses dimethyl ether (DME) as a propane surrogate substrate. Upon hydroxylation, it decomposes into methanol and dye-sensitive formaldehyde. In addition, hexyl methyl ether (HME) may be used as a surrogate for octane. It shares most of the physical properties of octane, including solubility in buffer, size, shape, and strength of its C—H bonds. When HME is hydroxylated at its methoxy carbon, it also produces an equivalent of formaldehyde which is visually detected at concentrations as low as 10 μM with the dye Purpald (see FIG. 25). Hexanal, the aldehyde product formed when the α-carbon of the hexyl group is hydroxylated, is practically unreactive towards Purpald at some concentrations used in the present screens. Formaldehyde is approximately 42 times more sensitive to Purpald than hexanal (see FIG. 26). This disproportionate response makes HME, in contrast to the symmetric ether DME, a regio-selective screen for terminal alkane hydroxylation.
High-throughput screening. Single colonies were picked and inoculated by a Qpix robot (Genetix, Beaverton, OR) into 1-mL, deep-well plates containing LB (Amp*) medium (400 μL). The plates were incubated at 30° C., 250 rpm, and 80% relative humidity. After 24 h, 50 μL from this pre-culture were used to inoculate a 2-mL, deep-well plates containing […] TB (Amp^+) medium per well. Cultures were grown at 37° C., 220 rpm, and 80% relative humidity. […]

[3] = Background NADPH oxidation rate in screen (cell lysate, no substrate); settings: relative to 35-E11
Procedure: as §1
The relative dimethyl ether (DME) activity was measured, 1 hour after treatment with Purpald, as the average net and absorbance at 550 nm from 8 microtitre plate DME reactions of the mutant compared to 8 equivalent reactions of 35-E11. All values were normalized by measuring the P450 concentration in each well with CO binding. “Asteriks” indicate criteria used to select mutants from libraries for further characterization. The oxidation rate is measured as absorbance change at 340 nm over 1 minute upon the addition of NADPH to 8 microtitre plate wells containing P450-containing cell lysate and compared to 8 equivalent reactions of 35-E11. All values were normalized by measuring the P450 concentration in each well with CO binding. The total turnover number (TTN) was measured as the absorbance at 550 nm of methane reactions with each mutant after treatment with alcohol oxidase and […]

Molecule | Methane TTN [1] | Relative DME activity in screen [2] | Relative background NADPH oxidation rate [3]
B1 | 12 | 0.9 | 0.6*
B2 | 13 | 0.8 | 0.7*
